Assay results reported in US20150299252A1.
Where no end group is shown, it is not given here.

Target: T1, Fc-chimeric NKG2D, P26718
T1 chain: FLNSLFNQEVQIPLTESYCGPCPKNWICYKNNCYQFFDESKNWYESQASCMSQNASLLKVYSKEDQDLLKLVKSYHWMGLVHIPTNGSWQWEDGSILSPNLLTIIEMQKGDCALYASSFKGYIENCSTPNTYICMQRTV

B1: biotinylated SVH1C (quadravalent, C-terminal ε-biotinyl-lysine amide) (peptide)
peptide: NPSHPLSGGGGS
chain: KKKK
modifications: not fully specified (some residues, C-terminus); also: quadravalent: four peptide copies on lysine scaffold
- Kd: 1000 nM
